Measured values reported in PMC10232437 (Scientific Reports, 2023).

Molecular target: the molecule itself
Assay: non-reducing SDS-PAGE with western blot; insoluble fraction (final pellet after Triton X-100 extraction) of SN tissue from control, MPTP/probenecid and NSA-treated mice, resuspended by sonication in 2% SDS lysis buffer, loaded with non-reducing sample buffer; anti-MLKL blot

B1: mixed lineage kinase domain-like protein (natural protein, UniProt Q9D2Y4 1-472, looked up)
chain: MDKLGQIIKLGQLIYEQCEKMKYCRKQCQRLGNRVHGLLQPLQRLQAQGKKNLPDDITAALGRFDEVLKEANQQIEKFSKKSHIWKFVSVGNDKILFHEVNEKLRDVWEELLLLLQVYHWNTVSDVSQPASWQQEDRQDAEEDGNENMKVILMQLQISVEEINKTLKQCSLKPTQEIPQDLQIKEIPKEHLGPPWTKLKTSKMSTIYRGEYHRSPVTIKVFNNPQAESVGIVRFTFNDEIKTMKKFDSPNILRIFGICIDQTVKPPEFSIVMEYCELGTLRELLDREKDLTMSVRSLLVLRAARGLYRLHHSETLHRNISSSSFLVAGGYQVKLAGFELSKTQNSISRTAKSTKAERSSSTIYVSPERLKNPFCLYDIKAEIYSFGIVLWEIATGKIPFEGCDSKKIRELVAEDKKQEPVGQDCPELLREIINECRAHEPSQRPSVDGRSLSGRERILERLSAVEESTDKKV
notes: mixed lineage kinase domain-like protein (MLKL), mouse, endogenous in the substantia nigra of C57BL/6 mice; Seen as a tetramer band in the insoluble fraction (non-reducing sample buffer) and as an oligomer on an A11 blot; also called MLKL; source: endogenous, mouse substantia nigra tissue lysate
Q: Which “stoichiometry N” value does the source give for B1 here?
A: Its value is 4.
